Measured values reported in paper PMC9688318, “Construction of a Versatile, Programmable RNA-Binding Protein Using Designer PPR Proteins and Its Application for Splicing Control in Mammalian Cells”.

Tests used:
MS2 protein = MS2 protein (UniProt P03612 2-130); experiment: RBP-ELISA; purified and lysate, dose-dependent; EMSA: 20 mM Tris-HCl pH 8.0, 150 mM NaCl, 0.5% NP-40, 1 mM DTT, 1 mM EDTA, 0.2 pmol biotin-RNA in 10 uL, 6% PAGE in 0.5x TBE; temperature not stated; RBP-ELISA; details: protein: recombinant; tags: 6xHis; Nano-luc; chain copies: 2; label: 5'-biotin; hairpin
MS2 protein, sequence (P03612 2-130): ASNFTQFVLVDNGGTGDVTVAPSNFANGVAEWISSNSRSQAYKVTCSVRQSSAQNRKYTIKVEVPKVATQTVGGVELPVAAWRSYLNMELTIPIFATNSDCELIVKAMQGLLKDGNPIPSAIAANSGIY

PPR2.0 t23 [1] = molecular target: T1, PPR2.0 t23 (synthetic); experiment: EMSA; 20 mM Tris-HCl pH 8.0, 150 mM NaCl, 0.5% NP-40, 1 mM DTT, 1 mM EDTA; 20 nM RNA; details: tags: N-terminal SBP, C-terminal His6, kept; label: biotin
T1 chain: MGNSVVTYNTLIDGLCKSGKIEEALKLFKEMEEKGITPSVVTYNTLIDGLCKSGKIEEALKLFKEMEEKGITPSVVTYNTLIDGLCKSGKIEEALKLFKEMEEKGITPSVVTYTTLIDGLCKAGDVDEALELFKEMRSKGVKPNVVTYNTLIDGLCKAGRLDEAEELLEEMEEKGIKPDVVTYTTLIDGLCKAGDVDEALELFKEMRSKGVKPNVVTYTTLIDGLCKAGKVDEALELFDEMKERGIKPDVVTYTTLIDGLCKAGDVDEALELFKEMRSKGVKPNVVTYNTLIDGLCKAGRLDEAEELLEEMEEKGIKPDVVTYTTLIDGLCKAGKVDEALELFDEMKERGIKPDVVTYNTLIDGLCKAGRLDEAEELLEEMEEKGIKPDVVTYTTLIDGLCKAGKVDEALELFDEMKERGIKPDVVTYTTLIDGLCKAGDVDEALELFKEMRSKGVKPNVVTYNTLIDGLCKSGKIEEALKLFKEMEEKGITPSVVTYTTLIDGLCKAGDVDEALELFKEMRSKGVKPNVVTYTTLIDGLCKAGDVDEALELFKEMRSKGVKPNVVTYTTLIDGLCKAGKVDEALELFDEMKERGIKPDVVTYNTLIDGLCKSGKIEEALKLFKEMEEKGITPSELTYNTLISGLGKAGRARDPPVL

PPR2.0 t23 [2] = molecular target: T1, PPR2.0 t23; experiment: 20 mM Tris-HCl pH 8.0, 150 mM NaCl, 0.5% NP-40, 1 mM DTT; details: tags: N-terminal NanoLuc, C-terminal His6, kept; label: biotin
PPR2.0 t24 = molecular target: T2, PPR2.0 t24 (synthetic); experiment: EMSA; 20 mM Tris-HCl pH 8.0, 150 mM NaCl, 0.5% NP-40, 1 mM DTT, 1 mM EDTA; 20 nM RNA; details: tags: N-terminal SBP, C-terminal His6, kept; label: biotin
T2 chain: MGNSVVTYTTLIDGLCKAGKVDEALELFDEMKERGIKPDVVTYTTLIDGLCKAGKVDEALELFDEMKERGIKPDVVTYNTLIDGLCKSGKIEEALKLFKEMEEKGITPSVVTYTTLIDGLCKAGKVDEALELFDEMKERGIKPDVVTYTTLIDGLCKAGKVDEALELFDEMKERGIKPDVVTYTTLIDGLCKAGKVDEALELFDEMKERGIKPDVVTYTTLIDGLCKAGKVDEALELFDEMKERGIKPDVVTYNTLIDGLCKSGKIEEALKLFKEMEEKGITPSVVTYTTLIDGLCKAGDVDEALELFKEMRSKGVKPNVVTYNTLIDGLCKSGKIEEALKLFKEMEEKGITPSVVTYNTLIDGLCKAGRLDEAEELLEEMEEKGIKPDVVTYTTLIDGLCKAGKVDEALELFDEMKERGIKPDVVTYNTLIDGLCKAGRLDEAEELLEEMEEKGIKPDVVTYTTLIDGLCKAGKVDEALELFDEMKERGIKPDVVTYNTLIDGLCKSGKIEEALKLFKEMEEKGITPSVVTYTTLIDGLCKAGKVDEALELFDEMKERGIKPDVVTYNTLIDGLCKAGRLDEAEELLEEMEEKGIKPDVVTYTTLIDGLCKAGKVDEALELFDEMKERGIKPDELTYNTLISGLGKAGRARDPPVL

PPR2.0 t19 [3] = molecular target: T3, PPR2.0 t19 (synthetic); experiment: as above; details: tags: N-terminal SBP, C-terminal His6, kept; label: biotin
T3 chain: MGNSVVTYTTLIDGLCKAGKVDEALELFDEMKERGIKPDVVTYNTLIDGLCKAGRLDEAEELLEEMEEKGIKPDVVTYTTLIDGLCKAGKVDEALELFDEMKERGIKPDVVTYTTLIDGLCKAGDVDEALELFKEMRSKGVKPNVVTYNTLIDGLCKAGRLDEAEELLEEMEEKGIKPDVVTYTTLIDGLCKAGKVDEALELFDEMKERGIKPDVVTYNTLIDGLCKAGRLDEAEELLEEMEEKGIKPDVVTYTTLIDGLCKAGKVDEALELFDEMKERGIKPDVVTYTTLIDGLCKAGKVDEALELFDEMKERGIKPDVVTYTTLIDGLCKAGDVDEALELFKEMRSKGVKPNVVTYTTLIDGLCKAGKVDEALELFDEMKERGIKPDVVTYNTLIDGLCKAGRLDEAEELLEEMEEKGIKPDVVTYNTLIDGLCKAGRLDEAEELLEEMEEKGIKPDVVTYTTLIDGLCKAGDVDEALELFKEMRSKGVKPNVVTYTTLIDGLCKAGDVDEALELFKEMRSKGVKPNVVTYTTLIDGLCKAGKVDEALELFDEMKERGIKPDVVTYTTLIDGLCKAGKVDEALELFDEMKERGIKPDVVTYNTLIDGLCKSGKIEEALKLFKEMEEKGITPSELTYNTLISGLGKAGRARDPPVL

PPR2.0 t19 [4] = molecular target: T3, PPR2.0 t19; experiment: 20 mM Tris-HCl pH 8.0, 150 mM NaCl, 0.5% NP-40, 1 mM DTT; details: tags: N-terminal NanoLuc, C-terminal His6, kept; label: biotin
PPR2.0 t3 [5] = molecular target: T4, PPR2.0 t3 (synthetic); experiment: EMSA; 20 mM Tris-HCl pH 8.0, 150 mM NaCl, 0.5% NP-40, 1 mM DTT, 1 mM EDTA; 20 nM RNA; details: tags: N-terminal SBP, C-terminal His6, kept; label: biotin
T4 chain: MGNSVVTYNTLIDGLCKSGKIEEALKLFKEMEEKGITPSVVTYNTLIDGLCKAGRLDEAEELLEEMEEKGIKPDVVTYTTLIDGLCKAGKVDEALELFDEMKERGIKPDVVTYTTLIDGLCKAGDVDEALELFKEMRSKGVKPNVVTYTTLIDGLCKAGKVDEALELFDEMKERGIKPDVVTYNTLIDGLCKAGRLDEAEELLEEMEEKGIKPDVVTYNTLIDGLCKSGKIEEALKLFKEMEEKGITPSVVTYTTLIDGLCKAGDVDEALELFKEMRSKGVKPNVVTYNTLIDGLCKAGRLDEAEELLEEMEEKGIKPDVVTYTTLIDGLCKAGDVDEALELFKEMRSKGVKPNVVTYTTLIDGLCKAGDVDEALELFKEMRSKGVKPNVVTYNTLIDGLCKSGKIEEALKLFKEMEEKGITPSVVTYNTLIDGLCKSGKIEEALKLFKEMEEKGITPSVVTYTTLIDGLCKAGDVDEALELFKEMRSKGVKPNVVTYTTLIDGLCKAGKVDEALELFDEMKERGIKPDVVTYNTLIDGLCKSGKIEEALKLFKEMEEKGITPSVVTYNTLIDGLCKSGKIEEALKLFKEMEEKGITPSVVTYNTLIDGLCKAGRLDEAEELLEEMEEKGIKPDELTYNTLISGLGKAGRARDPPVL

PPR2.0 t3 [6] = molecular target: T4, PPR2.0 t3; experiment: 20 mM Tris-HCl pH 8.0, 150 mM NaCl, 0.5% NP-40, 1 mM DTT; details: tags: N-terminal NanoLuc, C-terminal His6, kept; label: biotin
PPR2.0 t2 [7] = molecular target: T5, PPR2.0 t2 (synthetic); experiment: EMSA; 20 mM Tris-HCl pH 8.0, 150 mM NaCl, 0.5% NP-40, 1 mM DTT, 1 mM EDTA; 20 nM RNA; details: tags: N-terminal SBP, C-terminal His6, kept; label: biotin
T5 chain: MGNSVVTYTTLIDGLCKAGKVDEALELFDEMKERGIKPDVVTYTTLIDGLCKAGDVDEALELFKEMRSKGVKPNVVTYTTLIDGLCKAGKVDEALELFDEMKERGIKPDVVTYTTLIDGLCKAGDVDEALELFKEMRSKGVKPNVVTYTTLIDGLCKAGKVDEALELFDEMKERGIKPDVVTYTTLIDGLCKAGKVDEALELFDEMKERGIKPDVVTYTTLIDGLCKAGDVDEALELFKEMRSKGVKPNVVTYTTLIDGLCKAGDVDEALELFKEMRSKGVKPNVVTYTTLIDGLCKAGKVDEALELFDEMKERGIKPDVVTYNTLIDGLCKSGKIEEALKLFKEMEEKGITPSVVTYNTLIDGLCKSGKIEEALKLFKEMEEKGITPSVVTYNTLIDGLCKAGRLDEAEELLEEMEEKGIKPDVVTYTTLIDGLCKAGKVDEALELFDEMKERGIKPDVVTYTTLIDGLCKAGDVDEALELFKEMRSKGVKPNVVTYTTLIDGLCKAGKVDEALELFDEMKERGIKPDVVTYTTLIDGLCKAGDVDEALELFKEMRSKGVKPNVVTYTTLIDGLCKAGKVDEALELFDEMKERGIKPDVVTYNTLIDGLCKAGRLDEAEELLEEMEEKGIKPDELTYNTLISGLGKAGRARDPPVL

PPR2.0 t2 [8] = molecular target: T5, PPR2.0 t2; experiment: 20 mM Tris-HCl pH 8.0, 150 mM NaCl, 0.5% NP-40, 1 mM DTT; details: tags: N-terminal NanoLuc, C-terminal His6, kept; label: biotin
PPR2.0 t1 [9] = molecular target: T6, PPR2.0 t1 (synthetic); experiment: EMSA; 20 mM Tris-HCl pH 8.0, 150 mM NaCl, 0.5% NP-40, 1 mM DTT, 1 mM EDTA; 20 nM RNA; details: tags: N-terminal SBP, C-terminal His6, kept; label: biotin
T6 chain: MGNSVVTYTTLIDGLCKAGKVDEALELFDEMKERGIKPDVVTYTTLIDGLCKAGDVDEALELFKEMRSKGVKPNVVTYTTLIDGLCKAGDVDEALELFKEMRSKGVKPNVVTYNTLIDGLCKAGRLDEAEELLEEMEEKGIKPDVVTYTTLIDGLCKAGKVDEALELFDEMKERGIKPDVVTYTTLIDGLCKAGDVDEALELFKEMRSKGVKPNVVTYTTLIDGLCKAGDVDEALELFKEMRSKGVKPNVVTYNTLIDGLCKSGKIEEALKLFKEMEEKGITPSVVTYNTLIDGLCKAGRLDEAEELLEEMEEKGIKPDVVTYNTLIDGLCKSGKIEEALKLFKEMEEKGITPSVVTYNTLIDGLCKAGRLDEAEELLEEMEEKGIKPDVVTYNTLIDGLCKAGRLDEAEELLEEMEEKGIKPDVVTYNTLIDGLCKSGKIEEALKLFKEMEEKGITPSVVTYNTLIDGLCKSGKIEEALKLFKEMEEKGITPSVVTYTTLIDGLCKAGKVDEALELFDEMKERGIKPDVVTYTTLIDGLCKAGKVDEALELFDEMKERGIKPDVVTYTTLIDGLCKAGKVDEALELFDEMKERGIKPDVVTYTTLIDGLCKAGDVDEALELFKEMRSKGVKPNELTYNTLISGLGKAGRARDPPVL

PPR2.0 t1 [10] = molecular target: T6, PPR2.0 t1; experiment: 20 mM Tris-HCl pH 8.0, 150 mM NaCl, 0.5% NP-40, 1 mM DTT; details: tags: N-terminal NanoLuc, C-terminal His6, kept; label: biotin

Does AGAAAACAUGAGGAUCACCCAUGUCUGCAG (structured_RNA) [Probe_MS2] bind (MS2 protein)?
Result: binds

What does the source list for GACAUGCCCCAUAGAUGUGACAAGCGACUG (ssRNA) [Probe_t23]?
Kd (PPR2.0 t23 [1]): 10.4 nM; binding signal (PPR2.0 t23 [2]): 3.27e+07 RBP-ELISA luminescence, CPS

How did the Kd (PPR2.0 t24) turn out when GACAUGCGGCGGGGCACUGUGCGUGGACUG (ssRNA) [Probe_t24] was run?
Its Kd is 11 nM.

For GACAUGCGUGAUGUGGAGUUAAGGCGACUG (ssRNA) [Probe_t19], which Kd (PPR2.0 t19 [3]) is on record?
The Kd was 173 nM.

What about the binding signal (PPR2.0 t19 [4]) of the same binder?
Its binding signal is 1.19e+07 RBP-ELISA luminescence, CPS.

Which Kd (PPR2.0 t3 [5]) does the source give for GACAUGCCUGAGUCAUAACCAGCCUGACUG (ssRNA) [Probe_t3] here?
The Kd was 59.2 nM.

What about the binding signal (PPR2.0 t3 [6]) of the same binder?
The binding signal was 3.35e+07 RBP-ELISA luminescence, CPS.

Which results are given for GACAUGCGAGAGGAAGCCUGAGAGUGACUG (ssRNA) [Probe_t2]?
Kd (PPR2.0 t2 [7]): 4 nM; binding signal (PPR2.0 t2 [8]): 5.68e+07 RBP-ELISA luminescence, CPS

Which results are given for GACAUGCGAAUGAACUCUUCCGGGAGACUG (ssRNA) [Probe_t1]?
Kd (PPR2.0 t1 [9]): 3.45 nM; binding signal (PPR2.0 t1 [10]): 6.64e+07 RBP-ELISA luminescence, CPS
